According to patent US20160102129A1 (Novo Nordisk, published 2016):
*1 amine or outer side, *2 acyl side, *3 side chain or, on linkers, in order; H or OH if unused. Side-chain parts run from the residue outwards. [ ]: non-standard residue; d: D form. The star is where a group is joined. C20 diacid = O=C(O)CCCCCCCCCCCCCCCCCCC(=O)*; C18 diacid = O=C(O)CCCCCCCCCCCCCCCCC(=O)*; C16 diacid = O=C(O)CCCCCCCCCCCCCCC(=O)*; γGlu = O=C(O)[C@H](CCC(=O)[*:2])N[*:1]; C14 diacid = O=C(O)CCCCCCCCCCCCC(=O)*; Desaminohistidyl = O=C(CCc1c[nH]cn1)*; Ac4c = NC1(C(=O)O)CCC1; Aib = CC(C)(N)C(=O)O

B1: N^ε34-[(4S)-4-carboxy-4-[[(4S)-4-carboxy-4-[[(4S)-4-carboxy-4-[[(4S)-4-carboxy-4-(17-carboxyheptadecanoylamino)butanoyl]amino]butanoyl]amino]butanoyl]amino]buta … (peptide)
peptide: [Desaminohistidyl][Aib]HGTFTSDVSKYLEEQAAREFIAWLLK([γGlu-γGlu-γGlu-γGlu-C18 diacid])T-NH2
SMILES: CC[C@H](C)[C@H](NC(=O)[C@H](Cc1ccccc1)NC(=O)[C@H](CCC(=O)O)NC(=O)[C@H](CCCNC(=N)N)NC(=O)[C@H](C)NC(=O)[C@H](C)NC(=O)[C@H](CCC(N)=O)NC(=O)[C@H](CCC(=O)O)NC(=O)[C@H](CCC(=O)O)NC(=O)[C@H](CC(C)C)NC(=O)[C@H](Cc1ccc(O)cc1)NC(=O)[C@H](CCCCN)NC(=O)[C@H](CO)NC(=O)[C@@H](NC(=O)[C@H](CC(=O)O)NC(=O)[C@H](CO)NC(=O)[C@@H](NC(=O)[C@H](Cc1ccccc1)NC(=O)[C@@H](NC(=O)CNC(=O)[C@H](Cc1c[nH]cn1)NC(=O)C(C)(C)NC(=O)CCc1c[nH]cn1)[C@@H](C)O)[C@@H](C)O)C(C)C)C(=O)N[C@@H](C)C(=O)N[C@@H](Cc1c[nH]c2ccccc12)C(=O)N[C@@H](CC(C)C)C(=O)N[C@@H](CC(C)C)C(=O)N[C@@H](CCCCNC(=O)CC[C@H](NC(=O)CC[C@H](NC(=O)CC[C@H](NC(=O)CC[C@H](NC(=O)CCCCCCCCCCCCCCCCC(=O)O)C(=O)O)C(=O)O)C(=O)O)C(=O)O)C(=O)N[C@H](C(N)=O)[C@@H](C)O
B2: N^ε34-[2-[2-[2-[[2-[2-[2-[[(4S)-4-carboxy-4-[[(4S)-4-carboxy-4-(15-carboxypentadecanoylamino)butanoyl]amino]butanoyl]amino]ethoxy]ethoxy]acetyl]amino]ethoxy]eth … (peptide)
peptide: [Desaminohistidyl][Aib]HGTFTSDVSKYLEEQAAREFIAWLLK([Ado-Ado-γGlu-γGlu-C16 diacid])T-NH2
B3: N^ε34-[2-[[(2S)-2-[[(2S)-4-carboxy-2-[[2-[[(2S)-2-[[(4S)-4-carboxy-4-[[(4S)-4-carboxy-4-(17-carboxyheptadecanoylamino)butanoyl]amino]butanoyl]amino]-3-hydroxypr … (peptide)
peptide: [Desaminohistidyl][Ac4c]HGTFTSDVSKYLEEQAAREFIAWLLK([Gly-Ser-Glu-Gly-Ser-γGlu-γGlu-C18 diacid])T-NH2
B4: N^ε34-[2-[2-[2-[[2-[2-[2-[[(4S)-4-carboxy-4-[[(4S)-4-carboxy-4-(13-carboxytridecanoylamino)butanoyl]amino]butanoyl]amino]ethoxy]ethoxy]acetyl]amino]ethoxy]ethox … (peptide)
peptide: [Desaminohistidyl][Aib]HGTFTSDVSKYLEEQAAREFIAWLLK([Ado-Ado-γGlu-γGlu-C14 diacid])T-NH2
B5: N^ε34-[2-[[(2S)-2-[[(4S)-4-carboxy-4-[[(4S)-4-carboxy-4-(17-carboxyheptadecanoylamino)butanoyl]amino]butanoyl]amino]-3-hydroxypropanoyl]amino]acetyl]-[Imp7,Aib8 … (peptide)
peptide: [Desaminohistidyl][Aib]HGTFTSDVSKYLEEQAAREFIAWLLK([Gly-Ser-γGlu-γGlu-C18 diacid])T-NH2
SMILES: CC[C@H](C)[C@H](NC(=O)[C@H](Cc1ccccc1)NC(=O)[C@H](CCC(=O)O)NC(=O)[C@H](CCCNC(=N)N)NC(=O)[C@H](C)NC(=O)[C@H](C)NC(=O)[C@H](CCC(N)=O)NC(=O)[C@H](CCC(=O)O)NC(=O)[C@H](CCC(=O)O)NC(=O)[C@H](CC(C)C)NC(=O)[C@H](Cc1ccc(O)cc1)NC(=O)[C@H](CCCCN)NC(=O)[C@H](CO)NC(=O)[C@@H](NC(=O)[C@H](CC(=O)O)NC(=O)[C@H](CO)NC(=O)[C@@H](NC(=O)[C@H](Cc1ccccc1)NC(=O)[C@@H](NC(=O)CNC(=O)[C@H](Cc1c[nH]cn1)NC(=O)C(C)(C)NC(=O)CCc1c[nH]cn1)[C@@H](C)O)[C@@H](C)O)C(C)C)C(=O)N[C@@H](C)C(=O)N[C@@H](Cc1c[nH]c2ccccc12)C(=O)N[C@@H](CC(C)C)C(=O)N[C@@H](CC(C)C)C(=O)N[C@@H](CCCCNC(=O)CNC(=O)[C@H](CO)NC(=O)CC[C@H](NC(=O)CC[C@H](NC(=O)CCCCCCCCCCCCCCCCC(=O)O)C(=O)O)C(=O)O)C(=O)N[C@H](C(N)=O)[C@@H](C)O
B6: N^ε34-[2-[2-[2-[[2-[2-[2-[[(4S)-4-carboxy-4-[[(4S)-4-carboxy-4-(19-carboxynonadecanoylamino)butanoyl]amino]butanoyl]amino]ethoxy]ethoxy]acetyl]amino]ethoxy]etho … (peptide)
peptide: [Desaminohistidyl][Aib]HGTFTSDVSKYLEEQAAREFIAWLLK([Ado-Ado-γGlu-γGlu-C20 diacid])T-NH2
B7: N^ε34-[2-[2-[2-[[2-[2-[2-[[(4S)-4-carboxy-4-[[(4S)-4-carboxy-4-(17-carboxyheptadecanoylamino)butanoyl]amino]butanoyl]amino]ethoxy]ethoxy]acetyl]amino]ethoxy]eth … (peptide)
peptide: [Desaminohistidyl][Aib]HGTFTSDVSKYLEEQAAREFIAWLLK([Ado-Ado-γGlu-γGlu-C18 diacid])T-NH2

What follows are binders tested against T1, human GLP-1 receptor (human, UniProt P43220 24-463) (assay: SPA displacement of [125I]GLP-1(7-36)NH2 from hGLP-1R BHK membranes).
T1 construct: whole, on cells; reporter assay on whole cells
Protocol: The GLP-1 receptor binding of each derivatives were determined with competitive binding, displacing [¹²⁵I]GLP-1 bound to GLP-1 receptors expressed in cell membranes associated with wheat germ agglutinin (WGA) scintillation proximity assay (SPA) beads. Each derivative was added in a series of concentrations to isolated membranes comprising the human GLP-1 receptor and displacement of the labelled radioligand was monitored. The receptor binding was reported as the concentration at which half of the labelled ligand is displaced from the receptor, the IC⁵⁰ value.
1. For the receptor binding assay 50 μl of the assay buffer was added to each well of an assay plate. [0588] 2. Test compounds were serially diluted to give the following concentrations: 8×10EE-7 M, 8×10EE-8 M, 8×10EE-9 M, 8×10EE-10 M, 8×10EE-11 M, 8×10EE-12 M and 8×10EE-13 M. Twenty-five μl were added to appropriate wells in the assay plate. [0589] 3. Cell membrane aliquots were thawed and diluted to their working concentration. Fifty μl were added to each well in the assay plate. [0590] 4. WGA SPA beads were suspended in assay buffer at 20 mg/ml. The suspension was diluted to 10 mg/ml in assay buffer just prior to addition to the assay plate. Fifty μl were added to each well in the assay plate. [0591] 5. […] A 25 μl aliquot was reserved for measuring total counts/well. [0592] 6. The assay plate was incubated for 2 h at 30° C. [0593] 7. The assay plate was centrifuged for 10 min. [0594] 8. The assay plate was read in a Perkin Elmer TopCount NXT instrument.

First: B1
Second: B2
The IC50 of the first is 4.3-fold lower: 0.3 nM for the first, 1.3 nM for the second.

First: B3
Second: B4
The IC50 of the first is 15-fold lower: 0.1 nM for the first, 1.5 nM for the second.

Going from B5 to B6, the IC50 rises from 0.2 nM to 0.4 nM (2-fold). The first is the more potent here.

For B7, the IC50 was 0.5 nM.

The binders below were run against T2, human glucagon receptor (human, UniProt P47871 26-477) (assay: cell-based or functional assay).
T2 sequence (P47871 26-477): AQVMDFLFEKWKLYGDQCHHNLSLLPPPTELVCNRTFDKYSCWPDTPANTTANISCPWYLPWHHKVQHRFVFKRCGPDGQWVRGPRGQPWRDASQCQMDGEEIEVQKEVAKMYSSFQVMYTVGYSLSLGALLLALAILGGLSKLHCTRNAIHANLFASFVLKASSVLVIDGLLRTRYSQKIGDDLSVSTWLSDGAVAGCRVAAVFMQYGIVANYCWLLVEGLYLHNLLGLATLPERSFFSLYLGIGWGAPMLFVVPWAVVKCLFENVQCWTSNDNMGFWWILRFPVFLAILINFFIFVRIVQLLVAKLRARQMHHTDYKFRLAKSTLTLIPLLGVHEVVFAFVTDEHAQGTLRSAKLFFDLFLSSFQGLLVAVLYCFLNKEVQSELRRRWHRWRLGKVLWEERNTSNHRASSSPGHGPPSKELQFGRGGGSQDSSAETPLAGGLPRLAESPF

Compared with B1, B2 is higher in “EC50 GlucagonR [pM], CRE luciferase reporter gene assay” value (“EC50 GlucagonR [pM]” below): 44 pM for the first, 46.1 pM for the second.

Compared with B3, B4 is higher in “EC50 GlucagonR [pM]” value: 40 pM for the first, 52.6 pM for the second.

Going from B5 to B6, the “EC50 GlucagonR [pM]” value rises from 45 pM to 917 pM.

In the case of B7, the “EC50 GlucagonR [pM]” value is reported as 120 pM.

The binders below were run against T1, human GLP-1 receptor (assay: cell-based or functional assay).

First: B1
Second: B2
The “EC50 GLP-1R [pM], CRE luciferase reporter gene assay” value (from here on “EC50 GLP-1R [pM]”) of the first is lower: 7 pM for the first, 60.7 pM for the second.

First: B3
Second: B4
The “EC50 GLP-1R [pM]” value of the first is lower: 5 pM for the first, 12 pM for the second.

Compared with B5, B6 is higher in “EC50 GLP-1R [pM]” value: 7 pM for the first, 62.9 pM for the second.

B7 was tested, and the “EC50 GLP-1R [pM]” value was 5.2 pM.

These binders were tested against T2, human glucagon receptor (assay: SPA displacement of [125I]-glucagon from human glucagon receptor BHK membranes).
Protocol: 1. For the receptor binding assay 50 μl of the assay buffer was added to each well of an assay plate. [0603] 2. Test compounds were serially diluted to give the following concentrations: 8×10EE-7 M, 8×10EE-8 M, 8×10EE-9 M, 8×10EE-10 M, 8×10EE-11 M, 8×10EE-12 M and 8×10EE-13 M. Twenty-five μl were added to appropriate wells in the assay plate. [0604] 3. Cell membrane aliquots were thawed and diluted to their working concentration. Fifty μl were added to each well in the assay plate. [0605] 4. WGA SPA beads were suspended in assay buffer at 20 mg/ml. The suspension was diluted to 10 mg/ml in assay buffer just prior to addition to the assay plate. Fifty μl were added to each well in the assay plate. [0606] 5. […] A 25 μl aliquot was reserved for measuring total counts/well. […] 6. The assay plate was incubated for 2 h at 25° C. [0608] 7. The assay plate was centrifuged for 10 min at 1500 rpm. [0609] 8. The assay plate was read in a Perkin Elmer TopCount NXT instrument.

B1 and B2 are within 1.5-fold of each other in IC50: 4.2 nM for the first, 4 nM for the second.

B3 and B4 are within 1.5-fold of each other in IC50: 4.1 nM for the first, 3.7 nM for the second.

First: B5
Second: B6
The IC50 of the first is 2.3-fold lower: 4.3 nM for the first, 10.1 nM for the second.

B7 showed an IC50 of 4.3 nM.
